From US11261449B2, “Anti-cancer RNA aptamers” (CITY OF HOPE, priority 2015, dated 2022)

B1: P19: 2′F RNA aptamer selected by whole cell SELEX on Panc-1, SEQ ID NO:2 (nucleic acid)
chain: GGGAGACAAGAAUAAACGCUCAAUGGCGAAUGCCCGCCUAAUAGGGCGUUAUGACUUGUUGAGUUCGACAGGAGGCUCACAACAGGC
modifications: all phosphodiester, sugars by position and methylation of C not given here; 2'-fluoro modified RNA
B2: P1: 2′F RNA aptamer selected by whole cell SELEX on Panc-1, SEQ ID NO:4 (nucleic acid)
chain: GGGAGACAAGAAUAAACGCUCAAUGCGCUGAAUGCCCAGCCGUGAAAGCGUCGAUUUCCAUCCUUCGACAGGAGGCUCACAACAGGC
modifications: all phosphodiester, sugars by position and methylation of C not given here; 2'-fluoro modified RNA

What was measured:
[1] = tested on: pancreatic cancer; conditions: cited from earlier work
[2] = tested on: Panc-1 engrafted mice; test: Anti-tumor effects in Panc-1 (PANC-Luc) engrafted NOD/SCID mice; type: in vivo; conditions: P19 conjugates 1 nmol tail vein; gemcitabine 3 mg I.P.; listed as Gemcitabine
Method: To establish the traceable tumor animal models, subcutaneous implantations were performed by injecting 25 μl of a monocellular suspension containing 10^6 Panc-1 cell with luciferase expression (PANC-Luc) cells and a 25p growth factor reduced matrigel matrix (BD Biosciences, USA) under the dorsal skin of 6-week-old female NOD/SCID mice (BioLasco Co., Taiwan). The firefly luciferase fragment was inserted into the pcDNA-3.1(+) backbone encoding ampicillin resistance for selection in bacteria and neo gene for selection in mammalian cells. The recombinant constructs for stable cell line were purified using plasmid midi kit (QIAGEN, USA). PANC-1 cells were transfected with recombinant constructs for 24 h. The following day, culture medium was replaced with standard medium containing 1.2 mg/mL G418 (Merck, Germany) for stable clone selection. […] Luciferase expression was assessed using the Luciferase Assay System. […] Tumor growth was monitored by evaluating bioluminescence using the spectrum of IVIS 200 before first injection and one week after last injection. […] The mice were imaged in the spectrum of IVIS 200 and bioluminescent signals were analyzed using Living Image Software (Caliper Life Sciences, Alameda, Calif.). Tumor size was measured by ruler and calculated by the formula 0.52*length*width*width

[3] = Cytotoxicity compared with gemcitabine (hemoglobin, WBC, neutrophil, platelet counts); type: in vivo; conditions: engrafted mice
Method: FIG. 5A-5F. In vivo experiments. (FIG. 5A) The conjugates of P19 and P1 was injected via tail vein injection in Panc-1 engrafted mice. The conjugates were injected day 1, 3 and 5 for 3 or 4 weeks. Student t-test (unpaired, two-tailed) was used for statistical analysis. *t-test: […] (FIG. 5B) The photon was counter by I.V.I.S and signal changes were calculated in traceable xenoengrafted mice. (FIG. 5C) The representative images of the spectrum of IVIS 200 of each group. (FIG. 5D) Comparison of anti-tumor effect of C/EBPα-saRNA with gemcitabine in Panc-1 engrafted mice by tail vein injection. Tumor size was measured. *t-test: […] (FIG. 5E) The tumor growth inhibition of gemcitabine-resistant ASPC-1 engrafted mice by tail vein injection. Signal changes were calculated. Metastasis to ascites was measured. *t-test: […] (FIG. 5F) Comparison of cytotoxicity with gemcitabine. Hemoglobin, WBC, neutrophil and platelet were counted.

[4] = tested on: Panc-1; test: Binding to Panc-1 cells by flow cytometry with Cy3-labeled aptamers (KD); design: species or system human; conditions: Cy3 labeled aptamers 15.6-500 nM, MFI, one site binding non-linear regression; read-out: binding affinity (Kd)
Method: Aptamer binding and uptake was also assessed by flow cytometry. For the assay, cells were detached using a non-enzymatic cell dissociation solution, washed with PBS and suspended in binding buffer. Next, Cy3-labeled aptamers were added and incubated for 1 hours at 37° C. The binding of individual aptamers for the starting pool as a control to pancreatic cancer cells was performed in triplicate. Flow cytometry was performed on a Cyan (Beckman Coulter counter) and Fortessa. The data were analyzed with FlowJo software.
To determine the binding affinity of aptamers to Panc-1, the median fluorescence intensity (MFI) of each concentrations was determined and subtracted the mean fluorescence background of controls from the corresponding MFI of aptamers described by Sefah et al^53. The dissociation constants were calculated using one site binding non-linear curve regression with a Graph Pad Prism (GraphPad Software, La Jolla, Calif., USA).

[5] = tested on: Non pancreatic lines including Huh7, HepG2, MCF7 and PC3 cells; test: Confocal internalization / cell binding in non pancreatic cancer lines; type: cell-based; conditions: Cy3-labeled RNA, liver, breast and prostate cancer lines
Method: (§1) For the internalization, the cells were grown in 35 mm glass bottom dishes (MatTek, Ashland, Mass., USA) with seeding at 1×10^5 cells in medium for 24 hrs. The RNAs were labeled with Cy3 using the Cy3 Silencer siRNA labeling kit (Ambion, Tex., USA.). Cy3-labeled RNAs at 100 nM were added to the cells and incubated for 1 hour. The images were taken using a Zeiss LSM 510 Meta Inverted 2 photon confocal microscope system using a C-Apo 40×/1.2 NA Water immersion objective.

[6] = tested on: pancreatic cell lines PANC-1, AsPC-1, MIA PaCa and Capan-1; test: Live cell confocal internalization in pancreatic cancer cell lines; type: cell-based, human; conditions: Cy3-labeled RNA 100 nM
Method: as §1

[7] = tested on: gemcitabine-resistant ASPC-1 engrafted mice; test: Gemcitabine resistant AsPC-1 tumor in NOD/SCID mice; type: in vivo; conditions: tail vein, 4 injections at days 1, 3, 5, 7, sacrificed day 9
Method: (§2) For gemcitabine resistant tumour test, twelve 5-weeks-old female NOD/SCID mice were injected subcutaneously (S.C.) on the flank with 2.8×10^6 AsPC-1 pancreatic cancer cells in 0.05 ml PBS with 0.15 ml matrigel. After 3 weeks, mice were divided into four groups. One group served as untreated controls and the others injected with P1 (10 ug per injection), P19 (10 ug per injection) and P1 combined with P19 (5 ug of P1 with 5 ug of P19 per injection). Aptamer were injected through tail vein. Animals were injected 4 times at days 1, 3, 5, and 7, and were sacrificed at day 9.
as §2, with “To test chemoresistant tumor regression in mice,” for “For gemcitabine resistant tumour test,”, “ASPC-1 gemcitabine resistant” for “AsPC-1”, “P1,” for “P1 (10 ug per injection),”, “P19” for “P19 (10 ug per injection)”, “P19.” for “P19 (5 ug of P1 with 5 ug of P19 per injection).”

[8] = biological target: T1, mortalin (mitochondrial Hsp70) (Homo sapiens, UniProt P38646); test: Gel shift assay; type: binding; conditions: native PAGE
Excerpt: (§3) P1 and P19 were labeled with biotin at the 3′ end. Target membrane proteins were isolated following procedures described by Daniels et al^26 or extracted by ProteoExtract Native Membrane protein Extraction Kit (Calbiochem). Agilent 6520 Q-TOF mass spectrometer used to identify aptamer retrieved proteins. A BIAcore T100 (GE Healthcare, Uppsala, Sweden) was used to measure binding by surface plasmon resonance (SPR) technique. BIAevaluation software (GE Healthcare) was used for analysis. Gel shift assay was also performed to validate the target ligand binding.

[9] = biological target: T1, mortalin (mitochondrial Hsp70); test: Surface plasmon resonance (BIAcore T100); type: binding; conditions: aptamer biotin-labeled at 3′ end immobilized on SA chip
Excerpt: as §3

[10] = tested on: normal tissues such as liver, spleen, and kidney; T and B cells; test: Staining of other normal tissues and T and B cells; design: species or system human; conditions: Cy3 labeled aptamer
Method: FIG. 2A-2B. Histology (FIG. 2A) The representative images by histopathological screen in normal tissues. The samples were stained with Cy3 labeled aptamer P1 and P19 respectively. The sample sections were then examined under microscope at 100× magnification. Cy3-labeled RNA. (FIG. 2B) Flow cytometry analysis of P19 and P1 in T and B cells. Cy3-labeled RNAs were tested for binding to T and B cell isolated from human blood.

[11] = biological target: T2, cell membrane proteins (Homo sapiens, UniProt P38646); test: Retrieval of cell membrane proteins by biotinylated aptamers and MASS-SPEC; conditions: peptide matching fingerprinting
T2 construct: cell membrane proteins were retrieved by biotinylated aptamers; endogenous in cells
Excerpt: as §3

[12] = tested on: Panc-1 cells; test: Competition of Cy3 labeled P19 with unlabeled clones, confocal; type: binding, human; conditions: 200 nM Cy3 labeled P19, 1 μM unlabeled clone
Method: For competition assays, 200 nM of Cy3 labeled P19 aptamer was used to compete with either unlabeled clones (1 μM). The fluorescence intensity was quantified in the presence of increasing amounts of competitors using confocal microscopy and analyzed statistically. One-way ANOVA was used for statistical significant analysis (P<0.05).

[13] = tested on: human pancreatic cancer and normal pancreas tissue specimens; test: Histopathology staining with Cy3 labeled aptamers, aptamer score; conditions: for No. of Patients, Low (<7) staining / No. of Patients, Medium (>7 and <14) staining / No. of Patients, High (>14 and <20) staining: 72 patient samples; for No. of Patients, Low (<7) staining: aptamer score <7; for No. of Patients, Medium (>7 and <14) staining: aptamer score >7 and <14; for No. of Patients, High (>14 and <20) staining: aptamer score >14 and <20; for recognition of pancreatic cancer versus normal pancreas tissues: Cy3 labeled aptamer, histopathology; for Survival Period, High (>14 and <20) staining group / Survival Period, Low (<7) staining group / Survival Period, Medium (>7 and <14) staining group: Table 5, Mean ± SD
Method: The samples were stained by aptamer P1 and P19 respectively. We linked P1 and P19 with Cy3 as marker and DAPI stating was performed for cell nuclei as background. The sample sections were then examined under microscope at 100× magnification, and the aptamer content in each slide of pancreatic cancer was determined by measuring the average of positive-stained particle numbers in five independent fields randomly.
A total of 72 patients (45 male and 27 female) of pancreatic adenocarcinoma had undergone surgical intervention between January 2008 and December 2010 in National Taiwan University Hospital. Diagnosis was settled by pathologic analysis of specimen. All of the enrolled patients fulfilled the informed consent to receive the procedure, and this study was Institutional Review Board approved of NTUH.

T1 sequence (P38646 47-679): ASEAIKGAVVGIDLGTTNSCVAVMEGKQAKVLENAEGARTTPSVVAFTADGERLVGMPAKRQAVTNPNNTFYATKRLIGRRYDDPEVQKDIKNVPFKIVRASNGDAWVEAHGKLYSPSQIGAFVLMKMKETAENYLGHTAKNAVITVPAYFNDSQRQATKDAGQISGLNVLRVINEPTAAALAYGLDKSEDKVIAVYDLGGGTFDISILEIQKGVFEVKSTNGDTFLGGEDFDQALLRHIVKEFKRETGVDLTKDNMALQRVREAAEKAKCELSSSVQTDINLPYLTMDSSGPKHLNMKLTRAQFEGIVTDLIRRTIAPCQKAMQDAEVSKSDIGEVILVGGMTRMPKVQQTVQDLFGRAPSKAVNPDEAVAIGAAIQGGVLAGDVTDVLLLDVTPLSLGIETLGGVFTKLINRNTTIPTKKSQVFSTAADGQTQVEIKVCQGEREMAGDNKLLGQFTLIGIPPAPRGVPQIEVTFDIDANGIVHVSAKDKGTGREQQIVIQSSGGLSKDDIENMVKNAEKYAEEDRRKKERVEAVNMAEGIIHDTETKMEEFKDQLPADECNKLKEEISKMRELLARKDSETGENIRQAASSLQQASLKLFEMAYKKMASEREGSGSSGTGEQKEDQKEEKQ
T2 sequence (P38646 47-679): as above

| Molecule | Kd [4] [nM] | internalization / binding in non pancreatic cancer lines [5] | internalization in pancreatic cancer cells [6] | anti-tumor effect of aptamers only (tumor size) [7] | gel shift [8] | binding by SPR [9] | staining of other normal tissues including T and B cells [10] | target ligand identified [11] | No. of Patients, Low (<7) staining [13] | No. of Patients, Medium (>7 and <14) staining [13] | No. of Patients, High (>14 and <20) staining [13] | recognition of pancreatic cancer versus normal pancreas tissues [13] | Survival Period, High (>14 and <20) staining group [13] | Survival Period, Low (<7) staining group [13] | Survival Period, Medium (>7 and <14) staining group [13] | also measured |
| --- | --- | --- | --- | --- | --- | --- | --- | --- | --- | --- | --- | --- | --- | --- | --- | --- |
| C#Cc1cccc(Nc2ncnc3cc(OCCOC)c(OCCOC)cc23)c1 [erlotinib] |  |  |  |  |  |  |  |  |  |  |  |  |  |  |  | median added to overall survival ([1]; addition of erlotinib, randomized study): 11 days; survival benefit ([1]; phase III trial of erlotinib with gemcitabine, advanced disease): marginal survival benefit |
| Nc1ccn([C@@H]2O[C@H](CO)[C@@H](O)C2(F)F)c(=O)n1 [gemcitabine, 4-amino-1-(2-deoxy-2,2-difluoro-β-D-erythro-pentofuranosyl)pyrimidin-2(1H)-on] |  |  |  |  |  |  |  |  |  |  |  |  |  |  |  | 1-year survival rate ([1]; single agent, improved from 16): 19%; anti-tumor effects compared with PBS group [2]: failed to reduce tumor growth; cytotoxicity (hemoglobin, WBC, neutrophil, platelet) [3]: cytotoxicity such as reduction of hemoglobin and neutrophils; cytotoxicity (hemoglobin, WBC, neutrophil, platelet) ([3]; listed as Gemcitabine): cytotoxicity on RBCs and neutrophils |
| truncated P19: P19 truncated to 28mer including the common motif GAAUGCCC, SEQ ID NO:1 (CUCAAUGGCGAAUGCCCGCCUAAUAGGG; listed as RNA, chemistry not fully specified) | 8.77 | negative reaction | internalized into Panc-1 and AsPC-1 cells |  |  |  |  |  |  |  |  |  |  |  |  |  |
| B1 | 13.1 | No Cy3 signal was observed | punctate regions of Cy3 labeling | anti-tumor effects in gemcitabine resistance tumour cells significantly | shifted band was observed | bound to the mortalin | negative staining | mitochondrial Hsp70 which is mortalin | 3 | 26 | 43 | recognized pancreatic cancer tissues specifically, not normal pancreas tissues | 13.0 ± 4.29 | 21.0 ± 2.64 | 15.6 ± 3.30 | fluorescence intensity of labeled P19 in presence of unlabeled competitor [12]: significantly decreased |
| B2 | 2.2 | No Cy3 signal was observed | punctate regions of Cy3 labeling | anti-tumor effects in gemcitabine resistance tumour cells significantly | shifted band was observed | bound to the mortalin | negative staining | mitochondrial Hsp70 which is mortalin | 3 | 26 | 43 | recognized pancreatic cancer tissues specifically, not normal pancreas tissues | 13.1 ± 4.36 | 21.0 ± 2.64 | 15.9 ± 3.17 | survival period, medium level group [13]: 15.9±3.17 months |
